# Measurements reported in patent publication US12692310B2, “ASIC1 channel antagonist antibody” (ShanghaiTech University, priority 2019, dated 2026).
# T1: hASIC1a-eYFP on CHO-K1 cells (Homo sapiens, UniProt P78348)
# T1 construct: overexpress the full-length hASIC1a (1-528 amino acids) protein fused with eYFP; expressed in transfected cells; host or cells: CHO-K1, transient
# T1 sequence (P78348 1-528): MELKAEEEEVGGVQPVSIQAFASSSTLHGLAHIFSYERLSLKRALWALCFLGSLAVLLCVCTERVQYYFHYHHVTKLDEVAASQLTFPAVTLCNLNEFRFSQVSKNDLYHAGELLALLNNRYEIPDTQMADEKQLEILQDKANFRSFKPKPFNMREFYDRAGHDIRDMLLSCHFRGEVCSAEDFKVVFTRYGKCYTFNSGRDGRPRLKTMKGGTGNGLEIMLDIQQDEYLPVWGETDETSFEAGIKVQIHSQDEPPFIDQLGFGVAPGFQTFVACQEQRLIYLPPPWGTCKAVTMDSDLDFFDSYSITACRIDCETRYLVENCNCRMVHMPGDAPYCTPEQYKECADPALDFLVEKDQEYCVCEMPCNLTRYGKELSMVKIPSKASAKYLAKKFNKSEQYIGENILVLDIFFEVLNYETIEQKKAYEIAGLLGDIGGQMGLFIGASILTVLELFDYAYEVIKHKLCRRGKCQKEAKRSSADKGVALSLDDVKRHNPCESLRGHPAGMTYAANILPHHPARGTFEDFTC
# T2: hASIC2a (Homo sapiens, UniProt Q16515)
# T2 construct: expressed in transfected cells; host or cells: CHO-K1, transient
# T2 sequence (Q16515 1-512): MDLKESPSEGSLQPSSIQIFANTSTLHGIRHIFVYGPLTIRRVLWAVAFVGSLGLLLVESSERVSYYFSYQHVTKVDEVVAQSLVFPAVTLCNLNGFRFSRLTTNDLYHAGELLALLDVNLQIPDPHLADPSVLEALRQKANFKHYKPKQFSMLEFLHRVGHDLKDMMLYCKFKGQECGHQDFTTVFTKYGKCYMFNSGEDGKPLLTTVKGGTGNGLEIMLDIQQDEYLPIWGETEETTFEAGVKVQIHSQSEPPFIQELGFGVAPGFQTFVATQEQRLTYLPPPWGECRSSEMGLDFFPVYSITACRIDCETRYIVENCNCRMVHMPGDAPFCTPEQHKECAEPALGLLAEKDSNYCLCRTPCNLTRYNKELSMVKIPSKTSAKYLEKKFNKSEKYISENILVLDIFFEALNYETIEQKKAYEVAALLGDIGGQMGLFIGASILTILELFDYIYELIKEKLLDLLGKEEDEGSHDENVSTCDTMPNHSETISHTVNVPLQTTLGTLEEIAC
# How the values were obtained:
# [1] = molecular target: T1, hASIC1a-eYFP on CHO-K1 cells; experiment: Immunocytochemistry on CHO-K1/hASIC1a cells; format: cell-based; conditions: ICC, confocal
# Description: Cell Membrane Colocalization Studies Using Immunocytochemistry (ICC). Cells (CHO-K1) were seeded onto the poly-D-lysine-coated glass bottom 24-well plates at a concentration of 2×10^5 cells per mL. After 12 h of cultivation, the CHO-K1 cells were transfected with ASIC plasmids by Lipofectin 3000 reagent. Twenty-four hours after transfection, the cells were fixed in 4% paraformaldehyde and incubated for 30 min in a blocking solution (5% goat serum in PBS). The resulting cells were incubated with […] ASC06-IgG1 at 4° C. overnight followed by three PBS washes for 5 min each and incubation with the Alexa555-conjugated goat anti-human secondary antibody (Life Technology). After three additional PBS washes for 5 min each, the nuclei of the cells were stained with DAPI (#10236276001; Roche). The ICC analysis was performed on a laser scanning confocal microscopy (ZEISS LSM710) with a 63×N.A. 1.4 objective at 25° C. Images were collected on a 1,024×1,024-pixel EM-CCD camera. Data acquisition and analyses were performed with the ZEN 2012 professional software.
# To understand whether ASC01-ASC06 specifically bind to the ASIC1a protein expressed on cell surface, the binding of the antibodies to CHO-K1/hASIC1a cells was evaluated using immunocytochemistry. The CHO-K1/hASIC1a cells overexpress the full-length hASIC1a (1-528 amino acids) protein fused with eYFP. […] It is likely that ASC01-ASC05 recognize specific ASIC1a confirmations or subpopulations.
# The ASC06 antibody was converted into a full length IgG1 form (ASC06-IgG1) for further study. […] The binding of ASC06-IgG1 to CHO-K1/hASIC1a cells was evaluated using immunocytochemistry, in comparison with the ASC06 (scFv format) antibody.
# hASIC2a = molecular target: T2, hASIC2a; experiment: Subtype selectivity, FACS binding, transfected CHO-K1 cells; format: cell-based
# Description: To test the species and subtype selectivity of ASC06-IgG1, vectors encoding human ASIC1b-eYFP fusion, rat ASIC1a-eYFP fusion, mouse ASIC1a-eYFP fusion, hASIC2a-eYFP fusion, hASIC2b-eYFP fusion, and hASIC3a-eYFP fusion were constructed. The CHO-K1 cells were transiently transfected with these plasmids. FACS binding assay and immunocytochemistry (ICC) were carried out to determine if ASC06-IgG1 is able to bind to the cell surface-expressed ASIC homologs and isotypes.
# [2] = system: MCAO-induced ischemic stroke model mice; experiment: Middle cerebral artery occlusion (MCAO)-induced ischemic stroke model; format: in vivo, mouse; conditions: 4 μL i.c.v. 3 h after ischemia; 100 nM PcTx1 or 3.0 μg/μL ASC06-IgG1; 24 h after injection
# Description: The Middle Cerebral Artery Occlusion (MCAO) Model. Animal care and the experimental protocols were approved by the Animal Ethics Committee of Shanghai Jiao Tong University School of Medicine, Shanghai, China. A transient ischemic stroke in the left brain hemisphere was established in male mice (C57 BL/6, 20-25 g) using middle cerebral artery occlusion (MCAO) for 1 h before reperfusion. Three hours after ischemia, a total of 4 μL of vehicle solution (PBS) in the absence or presence of neuroprotective agents) 100 nM PcTx1 or 3.0 μg/μL endotoxin-free ASC06-IgG1 ([…])) was administered by an intracerebroventricular (i.c.v.) injection on the contralateral side of the brain hemisphere. An irrelevant endotoxin-free antibody (3.0 μg/μL, […]) was used as isotype control. […] Mice were sacrificed 24 h after the i.c.v. injection. […] The infarct area was calculated by subtracting the normal area stained with TTC in the ischemic hemisphere from that of the nonischemic hemisphere. The infarct volume was calculated by summing infarction areas of all sections and multiplying by slice thickness.
# To determine if the protective effect of antibody ASC06-IgG1 in vitro could be extended to pathologies in vivo, the middle cerebral artery occlusion (MCAO) model was used to study the antibody's neuroprotective effect. […] The infarct volume of the cortex and striatum were calculated 24 hours after the injection. […]
molecule,measurement,setting,value
"ASC06-IgG1: ASC06 antibody converted into a full length IgG1 form (antibody, V domains shown) VH: QVQLQQSGGGLVQPGGSLRLSCAASGFTFSSYAMSWVRQAPGKGLEWVSAISGSGGSTYYADSVKGRFTISRDNSKNTLYLQMNSLRAEDTAVYYCAKDSFYGYSKGDWGQGTLVTVSS VL: QSALTQPASVSGSPGQSITISCTGTSSDVGAYNYVSWYQQQPGKAPKLMIYGVSNRPSGVSNRFSGSKSGNAASLTISGLQAEDEADYYCSSYTSSSTYVFGTGTKLTVLG",membrane co-localization with hASIC1a,[1],membrane co-localization with hASIC1a
same,FACS recognition of hASIC2a,hASIC2a,not
same,infarct volume (compared with the contralateral brain region),[2],about 23%
